The text below walks through data of publication PMC6400558 (2019).

Sequences and labels used below:
B1: MBP-tagged Hook2 Hook+CC1 (N427) WT [human] / GST-tagged LIC1 (389–523 aa) [not stated] (parent complex)
chain 1: MSVDKAELCGSLLTWLQTFHVPSPCASPQDLSSGLAVAYVLNQIDPSWFNEAWLQGISEDPGPNWKLKVSNLKMVLRSLVEYSQDVLAHPVSEEHLPDVSLIGEFSDPAELGKLLQLVLGCAISCEKKQDHIQRIMTLEESVQHVVMEAIQELMTKDTPDSLSPETYGNFDSQSRRYYFLSEEAEEGDELQQRCLDLERQLMLLSEEKQSLAQENAGLRERMGRPEGEGTPGLTAKKLLLLQSQLEQLQEENFRLESGREDERLRCAELEREVAELQHRNQALTSLAQEAQALKDEMDELRQSSERAGQLEATLTSCRRRLGELRELRRQVRQLEERNAGHAERTRQLEDELRRAGSLRAQLEAQRRQVQELQGQRQEEAMKAEKWLFECRNLEEKYESVTKEKERLLAERDSLREANEELRCAQLQ
chain 2: TAAGRPVDASPRVPGGSPRTPNRSVSSNVASVSPIPAGSKKIDPNMKAGATSEGVLANFFNSLLSKKTGSPGGPGVSGGSPAGGAGGGSSGLPPSTKKSGQKPVLDVHAELDRITRKPVTVSPTTPTSPTEGEAS

Variants of B1 are the subject of this test. The experiment in a line: GST pull-down, anti-MBP immunoblot, band intensity quantified; n = 3; parent: 0.95; read off a plot.
Consider chain 1 I150A, for which the response was ~0.18 Pulldown/Input.
Regarding chain 1 Q143A, the response is ~0.22 Pulldown/Input.
